Source: publication PMC11871066, “Structure-based discovery of hydrocarbon-stapled paxillin peptides that block FAK scaffolding in cancer” (Nature Communications, 2025)
Bridge positions count the residues as written; N and C are the ends. Square brackets hold non-standard residues; d marks the D form. R8 = C=CCCCCCC[C@@](C)(N)C(=O)O; R5 = C=CCCC[C@@](C)(N)C(=O)O; S5 = C=CCCC[C@](C)(N)C(=O)O

B1: stapled peptide 1920 (lengthened 1907) (peptide)
chain: Ac-SLGSNL[R8]ELDRLL[S5]ELNAVQH-NH2
modifications: staple 7-14
SMILES: CC(=O)N[C@@H](CO)C(=O)N[C@@H](CC(C)C)C(=O)NCC(=O)N[C@@H](CO)C(=O)N[C@@H](CC(N)=O)C(=O)N[C@@H](CC(C)C)C(=O)N[C@]1(C)CCCCCCC=CCCC[C@@](C)(C(=O)N[C@@H](CCC(=O)O)C(=O)N[C@@H](CC(C)C)C(=O)N[C@@H](CC(N)=O)C(=O)N[C@@H](C)C(=O)N[C@H](C(=O)N[C@@H](CCC(N)=O)C(=O)N[C@@H](Cc2c[nH]cn2)C(N)=O)C(C)C)NC(=O)[C@H](CC(C)C)NC(=O)[C@H](CC(C)C)NC(=O)[C@H](CCCNC(=N)N)NC(=O)[C@H](CC(=O)O)NC(=O)[C@H](CC(C)C)NC(=O)[C@H](CCC(=O)O)NC1=O

What follows are binders tested against T1, biotinylated AviTag FAK FAT protein (human, biotin) (assay: SPR; biotinylated AviTag FAT immobilised on a streptavidin (SADH) biosensor, ForteBio Pioneer FE, OneStep gradient injection at 150 µl/min; 100 mM Tris-Cl pH 8.0, 200 mM NaCl, 0.05% Tween-20; peptides 200 µM to 97 nM; KD from kinetic data, one-site model). Details: both partners purified.
T1 construct: focal adhesion kinase (FAK), focal adhesion targeting (FAT) domain; captured on a streptavidin biosensor; also called focal adhesion targeting (FAT) domain

Row | Kd [µM] | Binder
1 | 22.6 | Ac-NL[R8]QLDRLL[S5]QLN-NH2 (staple 3-10) [stapled peptide 1910]
2 | > 200 | Ac-[R8]ELDRLL[S5]-NH2 (staple 1-8) [truncated stapled peptide 2011]
3 | 120 | Ac-NLSE[R8]DRLLLE[S5]N-NH2 (staple 5-12) [stapled peptide 1914]
4 | 27.9 | Ac-N[R8]SELDRL[S5]LELN-NH2 (staple 2-9) [stapled peptide 2017]
5 | 60.6 | Ac-NL[R8]ELDRLW[S5]ELN-NH2 (staple 3-10) [stapled peptide 2007]
6 | 13.7 | Ac-DL[R8]ELDRLL[S5]ELD-NH2 (staple 3-10) [stapled peptide 1913]
7 | 3.4 | Ac-NL[R8]ALDRLL[S5]ELN-NH2 (staple 3-10) [stapled peptide 2009]
8 | 146 | Ac-NLS[R8]LDRLLL[S5]LN-NH2 (staple 4-11) [stapled peptide 1905]
9 | 12.6 | Ac-NL[R8]ALDALL[S5]ELN-NH2 (staple 3-10) [stapled peptide 2010]
10 | 80.6 | Ac-NLSE[S5]DRL[S5]LELN-NH2 (staple 5-9) [stapled peptide 1919]
11 | 30.6 | Ac-NLSELDR[S5]LLE[S5]N-NH2 (staple 8-12) [stapled peptide 2015]
12 | 155 | Ac-NL[R8]EWDRLL[S5]EWN-NH2 (staple 3-10) [stapled peptide 1933]
13 | > 200 | Ac-NLSELDRL[R5]LE[S5]N-NH2 (staple 9-12) [stapled peptide 1921]

The binders below were run against T2, recombinant FAK FAT protein (fluorescence polarisation assay) (human) (assay: fluorescence polarisation; competition: FAT 25 µM, TAMRA-LD2 L10D probe 0.1 µM, peptide titrated from 1.25 mM, 3 h; 20 mM Tris-Cl pH 8.0, 200 mM NaCl, 0.05% β-mercaptoethanol, 0.1% Triton-X 100, 5% glycerol; Ki calculated from IC50). Details: both partners purified.
T2 construct: focal adhesion kinase (FAK), focal adhesion targeting (FAT) domain

Row | Binder | Ki [µM]
14 | Ac-NL[R8]QLDRLL[S5]QLN-NH2 (staple 3-10) [stapled peptide 1910] | 46.8
15 | Ac-[R8]ELDRLL[S5]-NH2 (staple 1-8) [truncated stapled peptide 2011] | > 333
16 | Ac-NLSE[R8]DRLLLE[S5]N-NH2 (staple 5-12) [stapled peptide 1914] | > 1250
17 | Ac-N[R8]SELDRL[S5]LELN-NH2 (staple 2-9) [stapled peptide 2017] | 80.6
18 | Ac-NL[R8]ELDRLW[S5]ELN-NH2 (staple 3-10) [stapled peptide 2007] | 190
19 | B1 | 25
20 | Ac-DL[R8]ELDRLL[S5]ELD-NH2 (staple 3-10) [stapled peptide 1913] | 21.8
21 | Ac-NL[R8]ALDRLL[S5]ELN-NH2 (staple 3-10) [stapled peptide 2009] | 26.7
22 | Ac-NLS[R8]LDRLLL[S5]LN-NH2 (staple 4-11) [stapled peptide 1905] | > 1250
23 | Ac-NL[R8]ALDALL[S5]ELN-NH2 (staple 3-10) [stapled peptide 2010] | 68.5
24 | Ac-NLSE[S5]DRL[S5]LELN-NH2 (staple 5-9) [stapled peptide 1919] | 38.6
25 | Ac-NLSELDR[S5]LLE[S5]N-NH2 (staple 8-12) [stapled peptide 2015] | 114
26 | Ac-NL[R8]EWDRLL[S5]EWN-NH2 (staple 3-10) [stapled peptide 1933] | 281
27 | Ac-NLSELDRL[R5]LE[S5]N-NH2 (staple 9-12) [stapled peptide 1921] | 492
